According to patent US20140087995A1 (published 2014):
Values belong to the binder of their own block, whether it stands above or below them. Numbered stars: 1 amine (or outer) side, 2 acyl side, 3 side chain; on linkers, the order of the positions; unused ones are H or OH. Bridge positions count the residues as written; N and C are the ends. Side chains are listed from the residue outwards. Ends that are not written are not given here. * marks the point of attachment. C20 diacid = O=C(O)CCCCCCCCCCCCCCCCCCC(=O)*; γGlu = O=C(O)[C@H](CCC(=O)[*:2])N[*:1]

Experiments:
[1] = molecular target: T1, human amylin receptor (human calcitonin receptor co-expressed with RAMP-3; amylin 3(a) receptor) (human, UniProt P30988 25-474; O60896 24-148, limits assumed); assay: ratio of hCTR binding IC50 to hAmylin-R binding IC50 (reference: human calcitonin receptor)
T1 construct: whole, on cells; Used as cell membranes prepared from Amylin 3(a)/CRE-luc BHK cells (Assay V), not as intact cells; also called hAmylin-R; hAmylinR
T1 sequence (looked up) 1: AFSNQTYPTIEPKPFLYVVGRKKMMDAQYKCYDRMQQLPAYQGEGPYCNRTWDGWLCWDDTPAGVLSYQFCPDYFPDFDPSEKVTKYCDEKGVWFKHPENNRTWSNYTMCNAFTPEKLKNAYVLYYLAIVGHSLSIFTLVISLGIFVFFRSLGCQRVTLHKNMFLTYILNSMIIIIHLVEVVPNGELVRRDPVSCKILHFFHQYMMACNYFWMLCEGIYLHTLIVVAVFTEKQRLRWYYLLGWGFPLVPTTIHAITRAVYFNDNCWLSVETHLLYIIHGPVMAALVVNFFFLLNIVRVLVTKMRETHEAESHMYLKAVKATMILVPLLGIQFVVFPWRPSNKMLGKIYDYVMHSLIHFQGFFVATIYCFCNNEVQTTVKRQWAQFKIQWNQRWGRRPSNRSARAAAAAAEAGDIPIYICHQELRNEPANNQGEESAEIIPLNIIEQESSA
T1 sequence (looked up) 2: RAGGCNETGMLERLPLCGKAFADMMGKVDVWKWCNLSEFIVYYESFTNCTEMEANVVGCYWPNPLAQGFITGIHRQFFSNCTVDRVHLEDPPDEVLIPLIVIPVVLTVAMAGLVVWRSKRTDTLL
In short: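 Scintillation proximity competition binding on cell membranes at 35 ng/μL with SPA beads, in 50 mM Hepes pH 7.4, 1 mM CaCl2, 5 mM MgCl₂, 0.1% OA, 0.02% Tween20. Incubated 120 min at 25° C with shaking. IC₅₀ from one-site competition fit.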

[2] = molecular target: T2, human calcitonin receptor (human, UniProt P30988 25-474); assay: SPA competition against 125I-calcitonin, membranes with human calcitonin receptor (Assay VII)
T2 construct: whole, on cells; Used as cell membranes prepared from the transfected BHK cells (Assay VII), not as intact cells; also called hCTR; hCT
T2 sequence (looked up): T1 sequence (looked up) 1
In short: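 BHK hCTR membranes 35 ng/μL + SPA beads 0.05 mg/well; buffer 50 mM Hepes pH 7.4, 1 mM CaCl2, 5 mM MgCl₂, 0.1% OA, 0.02% Tween20. 120 min, 25° C., shaking. Scintillation count; IC50 by one-site binding competition.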

- Ratio hCT/hAmylin binding [1]: 45.2
- IC50 [2]: 0.0314 µM
B1: N^ε1-[(4S)-4-carboxy-4-(19-carboxynonadecanoylamino)butanoyl]-[Arg17,Pro21,Pro27,His35]-h-amylin (peptide)
peptide: K([γGlu-C20 diacid])CNTATCATQRLANFLRHSSPNFGAIPSSTNVGSHTY-NH2
modifications: disulfide 2-7; N-terminus assumed
SMILES: CC[C@H](C)[C@H](NC(=O)[C@H](C)NC(=O)CNC(=O)[C@H](Cc1ccccc1)NC(=O)[C@H](CC(N)=O)NC(=O)[C@@H]1CCCN1C(=O)[C@H](CO)NC(=O)[C@H](CO)NC(=O)[C@H](Cc1c[nH]cn1)NC(=O)[C@H](CCCNC(=N)N)NC(=O)[C@H](CC(C)C)NC(=O)[C@H](Cc1ccccc1)NC(=O)[C@H](CC(N)=O)NC(=O)[C@H](C)NC(=O)[C@H](CC(C)C)NC(=O)[C@H](CCCNC(=N)N)NC(=O)[C@H](CCC(N)=O)NC(=O)[C@@H](NC(=O)[C@H](C)NC(=O)[C@@H]1CSSC[C@H](NC(=O)[C@@H](N)CCCCNC(=O)CC[C@H](NC(=O)CCCCCCCCCCCCCCCCCCC(=O)O)C(=O)O)C(=O)N[C@@H](CC(N)=O)C(=O)N[C@@H]([C@@H](C)O)C(=O)N[C@@H](C)C(=O)N[C@@H]([C@@H](C)O)C(=O)N1)[C@@H](C)O)C(=O)N1CCC[C@H]1C(=O)N[C@@H](CO)C(=O)N[C@@H](CO)C(=O)N[C@H](C(=O)N[C@@H](CC(N)=O)C(=O)N[C@H](C(=O)NCC(=O)N[C@@H](CO)C(=O)N[C@@H](Cc1c[nH]cn1)C(=O)N[C@H](C(=O)N[C@@H](Cc1ccc(O)cc1)C(N)=O)[C@@H](C)O)C(C)C)[C@@H](C)O
notes: also called compound 60

- Ratio hCT/hAmylin binding [1]: 37.5
- IC50 [2]: 0.0311 µM
B2: N^ε1-[(4S)-4-carboxy-4-(19-carboxynonadecanoylamino)butanoyl]-[Glu14,Arg17,Pro21,Pro27,Arg35]-h-amylin (peptide)
peptide: K([γGlu-C20 diacid])CNTATCATQRLAEFLRHSSPNFGAIPSSTNVGSRTY-NH2
modifications: disulfide 2-7; N-terminus assumed
SMILES: CC[C@H](C)[C@H](NC(=O)[C@H](C)NC(=O)CNC(=O)[C@H](Cc1ccccc1)NC(=O)[C@H](CC(N)=O)NC(=O)[C@@H]1CCCN1C(=O)[C@H](CO)NC(=O)[C@H](CO)NC(=O)[C@H](Cc1c[nH]cn1)NC(=O)[C@H](CCCNC(=N)N)NC(=O)[C@H](CC(C)C)NC(=O)[C@H](Cc1ccccc1)NC(=O)[C@H](CCC(=O)O)NC(=O)[C@H](C)NC(=O)[C@H](CC(C)C)NC(=O)[C@H](CCCNC(=N)N)NC(=O)[C@H](CCC(N)=O)NC(=O)[C@@H](NC(=O)[C@H](C)NC(=O)[C@@H]1CSSC[C@H](NC(=O)[C@@H](N)CCCCNC(=O)CC[C@H](NC(=O)CCCCCCCCCCCCCCCCCCC(=O)O)C(=O)O)C(=O)N[C@@H](CC(N)=O)C(=O)N[C@@H]([C@@H](C)O)C(=O)N[C@@H](C)C(=O)N[C@@H]([C@@H](C)O)C(=O)N1)[C@@H](C)O)C(=O)N1CCC[C@H]1C(=O)N[C@@H](CO)C(=O)N[C@@H](CO)C(=O)N[C@H](C(=O)N[C@@H](CC(N)=O)C(=O)N[C@H](C(=O)NCC(=O)N[C@@H](CO)C(=O)N[C@@H](CCCNC(=N)N)C(=O)N[C@H](C(=O)N[C@@H](Cc1ccc(O)cc1)C(N)=O)[C@@H](C)O)C(C)C)[C@@H](C)O
notes: also called compound 51
